# Data: article PMC6162332, “A unique intracellular tyrosine in neuroligin-1 regulates AMPA receptor recruitment during synapse differentiation and potentiation” (Nature Communications, 2018)
# Molecular target: T1, PSD-95-mCherry (rat, UniProt P31016 1-724)
# T1 construct: PSD-95, rat; the rat PSD-95 gene subcloned in frame with an N-terminal mCherry into pET-24a(+) between EcoRI and XhoI; the methods give no limits; source: E. coli BL21-CodonPlus (DE3)-RIPL, purified (Ni-NTA, dialysed into PBS with 0.01% Tween-20); not shown: mCherry, N-terminal, kept
# Assay: pull-down; GST or GST-Nlg1 proteins (0.64 nmol/200 µl) on glutathione magnetic beads in PBS pH 7.4, 0.01% BSA, 0.01% Tween-20; incubated 20 min at RT with purified PSD-95-mCherry (0.01 nmol/100 µL); eluted with glutathione; anti-PSD-95 immunoblot
# Conditions: both partners purified
# T1 sequence (P31016 whole entry): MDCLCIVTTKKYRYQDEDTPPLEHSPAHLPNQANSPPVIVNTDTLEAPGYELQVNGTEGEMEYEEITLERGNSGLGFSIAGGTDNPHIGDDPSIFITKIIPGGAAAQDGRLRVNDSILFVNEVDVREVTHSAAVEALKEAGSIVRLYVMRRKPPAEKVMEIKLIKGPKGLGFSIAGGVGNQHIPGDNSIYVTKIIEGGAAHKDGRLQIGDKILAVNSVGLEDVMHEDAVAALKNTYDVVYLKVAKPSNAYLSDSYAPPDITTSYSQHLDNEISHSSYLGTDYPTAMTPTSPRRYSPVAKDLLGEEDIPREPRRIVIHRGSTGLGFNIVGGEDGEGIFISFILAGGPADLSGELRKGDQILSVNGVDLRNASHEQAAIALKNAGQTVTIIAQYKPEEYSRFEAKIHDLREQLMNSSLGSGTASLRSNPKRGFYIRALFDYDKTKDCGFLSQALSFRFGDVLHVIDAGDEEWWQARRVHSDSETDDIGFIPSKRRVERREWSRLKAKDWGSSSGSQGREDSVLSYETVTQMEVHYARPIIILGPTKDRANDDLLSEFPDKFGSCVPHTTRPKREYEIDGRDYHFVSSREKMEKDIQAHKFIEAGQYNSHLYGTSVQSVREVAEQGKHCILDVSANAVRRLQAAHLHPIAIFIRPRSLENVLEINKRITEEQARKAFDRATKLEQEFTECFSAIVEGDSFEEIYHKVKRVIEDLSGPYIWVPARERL
row,binding result,Binder
1,binds,"GST-Nlg1-WT (GST fused to the intracellular domain of neuroligin-1) (domain or fragment, mouse, UniProt Q99K10 719-843, looked up, neuroligin-1 (Nlg1), mouse, cytoplasmic tail amplified from HA-Nlg1 (with splice inserts A and B) and inserted in pGex-4T1 at XhoI/NotI; source: E. coli BL21 (DE3)-RIPL, purified (Glutathione Sepharose 4 Fast Flow, dialysed against PBS)) YKKDKRRHDVHRRCSPQRTTTNDLTHAPEEEIMSLQMKHTDLDHECESIHPHEVVLRTACPPDYTLAMRRSPDDIPLMTPNTITMIPNTIPGIQPLHTFNTFTGGQNNTLPHPHPHPHSHSTTRV"
2,binds,"GST-Nlg1-Y782F (domain or fragment, mouse, UniProt Q99K10 719-843, looked up, neuroligin-1 (Nlg1), mouse, cytoplasmic tail amplified from HA-Nlg1-Y782F and inserted in pGex-4T1 at XhoI/NotI; Same limits as m1 (same primers); source: E. coli BL21 (DE3)-RIPL, purified (Glutathione Sepharose 4 Fast Flow, dialysed against PBS)) YKKDKRRHDVHRRCSPQRTTTNDLTHAPEEEIMSLQMKHTDLDHECESIHPHEVVLRTACPPDFTLAMRRSPDDIPLMTPNTITMIPNTIPGIQPLHTFNTFTGGQNNTLPHPHPHPHSHSTTRV"
3,binds,"GST-Nlg1-Y782A (domain or fragment, mouse, UniProt Q99K10 719-843, looked up, neuroligin-1 (Nlg1), mouse, cytoplasmic tail amplified from HA-Nlg1-Y782A and inserted in pGex-4T1 at XhoI/NotI; Same limits as m1 (same primers); source: E. coli BL21 (DE3)-RIPL, purified (Glutathione Sepharose 4 Fast Flow, dialysed against PBS)) YKKDKRRHDVHRRCSPQRTTTNDLTHAPEEEIMSLQMKHTDLDHECESIHPHEVVLRTACPPDATLAMRRSPDDIPLMTPNTITMIPNTIPGIQPLHTFNTFTGGQNNTLPHPHPHPHSHSTTRV"
